Results reported in US20180155451A1 (published 2018).

Key:
FcgRIIIaV [1] = biological target: T1, FcgRIIIaV (human, UniProt P08637 17-208); assay: SPR (Biacore), antibody captured on chip, FcgR as analyte
T1 construct: extracellular domain; V158 allotype; also called FcγRIIIa V; not shown: C-terminal His tag
Description: (§1) The variants described above were assessed for their binding to FcγR according to the method described in Reference Example 8.
(§2) Analysis of interaction between obj ective antibody and the FcγR was carried out using Biacore T100 (GE Healthcare), Biacore T200, Biacore A100, and Biacore 4000. HBS-EP+ (GE Healthcare) was used as the running buffer, and the measurement temperature was set to 25° C. Chips produced by immobilizing the antigen peptide by the amine coupling method to a Series S sensor Chip CM5 (GE Healthcare), chips produced by allowing preliminarily biotinylated antigen peptides to interact with and immobilize onto a Series S Sensor Chip SA (certified) (GE Healthcare), chips produced by immobilizing Protein L (ACTIGEN, BioVision) to Series S Sencor Chip CM5 (GE Healthcare), or chips produced by immobilizing Protein A/G (Thermo Scientific) to Series S Sencor Chip CM5 (GE Healthcare) were used. Antibodies of interest were captured onto these chips, and allowed to interact to each FcγR diluted with running buffer. To regenerate and repeatedly use the chip, the antibodies captured onto the chip were washed off by reacting 10 mM glycine-HCl, pH 1.5.

FcgRIIIaF [2] = biological target: T2, FcgRIIIaF (human, UniProt P08637 17-208); assay: as above
T2 construct: extracellular domain; F158 allotype; also called FcγRIIIa F; not shown: C-terminal His tag
T2 sequence (P08637 17-208): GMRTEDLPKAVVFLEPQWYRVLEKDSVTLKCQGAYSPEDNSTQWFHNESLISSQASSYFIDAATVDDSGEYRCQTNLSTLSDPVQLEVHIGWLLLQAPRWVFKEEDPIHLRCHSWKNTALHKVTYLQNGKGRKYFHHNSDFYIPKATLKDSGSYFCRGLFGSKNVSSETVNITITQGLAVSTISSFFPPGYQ
Description: as §1, §2

FcgRIIb [3] = biological target: T3, FcgRIIb (human, UniProt P31994 43-217); assay: as above
T3 construct: extracellular domain; also called FcγRIIb; CD32B; not shown: C-terminal His tag
T3 sequence (looked up): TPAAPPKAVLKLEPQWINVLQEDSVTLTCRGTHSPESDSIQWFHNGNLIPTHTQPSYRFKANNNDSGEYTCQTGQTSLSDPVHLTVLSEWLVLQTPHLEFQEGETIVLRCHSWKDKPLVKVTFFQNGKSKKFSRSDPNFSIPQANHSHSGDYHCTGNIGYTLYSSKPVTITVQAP
Description: as §1, §2

FcgRIIaH [4] = biological target: T4, FcgRIIaH (human, UniProt P12318 34-217); assay: as above
T4 construct: extracellular domain; H131 allotype; also called FcγRIIa H; FcgRIIa type H; not shown: C-terminal His tag
T4 sequence (looked up): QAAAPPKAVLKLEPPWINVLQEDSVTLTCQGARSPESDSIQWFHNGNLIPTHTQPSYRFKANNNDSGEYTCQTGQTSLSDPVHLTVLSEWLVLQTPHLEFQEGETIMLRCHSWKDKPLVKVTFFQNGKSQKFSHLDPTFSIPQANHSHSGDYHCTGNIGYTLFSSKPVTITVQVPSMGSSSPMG
Description: as §1, §2

FcgRIIaR [5] = biological target: T5, FcgRIIaR (human, UniProt P12318 34-217); assay: as above
T5 construct: extracellular domain; R131 allotype; also called FcγRIIa R; FcgRIIa type R; not shown: C-terminal His tag
T5 sequence (looked up): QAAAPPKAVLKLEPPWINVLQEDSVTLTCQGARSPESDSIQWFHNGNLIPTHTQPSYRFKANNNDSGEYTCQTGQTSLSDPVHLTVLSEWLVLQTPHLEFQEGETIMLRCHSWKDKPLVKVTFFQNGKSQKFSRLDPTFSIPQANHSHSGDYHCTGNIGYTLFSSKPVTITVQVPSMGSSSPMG
Description: as §1, §2

FcgRIa = biological target: T6, FcgRIa (human, UniProt P12314 16-292); assay: SPR (Biacore 4000), antibody captured on chip, FcgR as analyte; kd below the limit 5e-5 /s
T6 construct: extracellular domain; also called FcγRIa; FcγRI; not shown: C-terminal His tag
T6 sequence (P12314 16-292): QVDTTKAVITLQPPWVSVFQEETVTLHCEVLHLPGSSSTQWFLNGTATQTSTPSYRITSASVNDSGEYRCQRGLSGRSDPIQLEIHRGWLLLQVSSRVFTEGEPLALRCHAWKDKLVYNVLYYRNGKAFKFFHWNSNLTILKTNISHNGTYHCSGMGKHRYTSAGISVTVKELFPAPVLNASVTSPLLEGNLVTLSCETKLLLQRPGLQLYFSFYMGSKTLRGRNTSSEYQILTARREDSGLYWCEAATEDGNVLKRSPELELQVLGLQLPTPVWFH
Description: as §1, §2

FcgRIIIaV [6] = biological target: T1, FcgRIIIaV; assay: SPR (Biacore); KD of H240-Kn120/H240-Hl068/L73-k0 divided by KD of the sample
Description: as §1, §2

FcgRIIIaF [7] = biological target: T2, FcgRIIIaF; assay: as above
Description: as §1, §2

FcgRIIb [8] = biological target: T3, FcgRIIb; assay: as above
Description: as §1, §2

FcgRIIaH [9] = biological target: T4, FcgRIIaH; assay: as above
Description: as §1, §2

FcgRIIaR [10] = biological target: T5, FcgRIIaR; assay: as above
Description: as §1, §2

FcγRIIIa = biological target: T7, FcγRIIIa (human, UniProt P08637 17-208); assay: SPR (Biacore), KD
T7 construct: extracellular domain; not shown: His tag attached to the C terminus
T7 sequence (P08637 17-208): as the sequence (P08637 17-208) above

T1 sequence (P08637 17-208 F176V limits assumed): as the sequence (P08637 17-208) above, with F160V counted along it

B1: H240-Kn192/H240-Hl204/L73-k0 (antibody, human IgG1, kappa)
heavy 1: QDQLVQSGAEVKKPGASVKVSCKASGFNIKDTYIQWVRQAPGQGLEWMGRIDPLRKQTKYREKFEGRVTITADTSTNTAYMELSSLRSEDTAVYYCVRSGREFDYWGQGTLVTVSSASTKGPSVFPLAPSSKSTSGGTAALGCLVKDYFPEPVTVSWNSGALTSGVHTFPAVLQSSGLYSLSSVVTVPSSSLGTQTYICNVNHKPSNTKVDKKVEPKSCDKTHTCPPCPAPEYNWGPMVFLFPPKPKDTLMISRTPEVTCVVVDVSDEDPEVKFNWYVDGVEVHNAKTKPREKQYNATYRVVSVLTVLHQDWLNGKEYKCKVSNKDLPAPIEKTISKAKGQPREPQVCTLPPSRDELTKNQVSLWCLVKGFYPSDIAVEWESNGQPENNYKTTPPVLDSDGSFFLYSKLTVDKSRWQQGNVFSCSVMHEALHNHYTQKSLSLSP
heavy 2: QDQLVQSGAEVKKPGASVKVSCKASGFNIKDTYIQWVRQAPGQGLEWMGRIDPLRKQTKYREKFEGRVTITADTSTNTAYMELSSLRSEDTAVYYCVRSGREFDYWGQGTLVTVSSASTKGPSVFPLAPSSKSTSGGTAALGCLVKDYFPEPVTVSWNSGALTSGVHTFPAVLQSSGLYSLSSVVTVPSSSLGTQTYICNVNHKPSNTKVDKKVEPKSCDKTHTCPPCPAPELLTGPSVFLFPPKPKDTLMISRTPEVTCVVVDVSHEEPEVKFNWYVDGVEVHNAKTKPREEQYNSTYRVVSVLTVLHQDWLNGKEYKCKVSNDALPKPEEETISKAKGQPREPQVYTLPPSRCELTKNQVSLSCAVKGFYPSDIAVEWESNGQPENNYKTTPPVLDSDGSFFLVSKLTVDKSRWQQGNVFSCSVMHEALHNHYTQKSLSLSP
light: DIQMTQSPSSLSASVGDRVTITCRASQDIHKYIAWYQQKPGQAPRLLIQYTSTLQPGVPSRFSGSGSGTDYTFTISSLQPEDIATYYCLQYEQLRTFGGGTKVEIKRTVAAPSVFIFPPSDEQLKSGTASVVCLLNNFYPREAKVQWKVDNALQSGNSQESVTEQDSKDSTYSLSSTLTLSKADYEKHKVYACEVTHQGLSSPVTKSFNRGEC
notes: Heterodimerized anti-epiregulin antibody
Kd (FcgRIIIaV [1]): 2.2 nM
Kd (FcgRIIIaF [2]): 12 nM
Kd (FcgRIIb [3]): 290 nM
Kd (FcgRIIaH [4]): 42 nM
Kd (FcgRIIaR [5]): 19 nM
Kd (FcgRIa): < 0.019 nM
Relative KD (FcgRIIIaV [6]): 0.2
Relative KD (FcgRIIIaF [7]): 0.2
Relative KD (FcgRIIb [8]): 0.5
Relative KD (FcgRIIaH [9]): 1
Relative KD (FcgRIIaR [10]): 1.1

B2: GpH7-A53/GpH7-B78/GpL16-k0 (antibody, human IgG1, kappa)
heavy 1: QVQLVQSGAEVKKPGASVTVSCKASGYTFTDYEMHWIRQPPGEGLEWIGAIDPKTGDTAYSESFQDRVTLTADKSTSTAYMELSSLTSEDTAVYYCTRFYSYTYWGQGTLVTVSSASTKGPSVFPLAPSSKSTSGGTAALGCLVKDYFPEPVTVSWNSGALTSGVHTFPAVLQSSGLYSLSSVVTVPSSSLGTQTYICNVNHKPSNTKVDKKVEPKSCDKTHTCPPCPAPELLGGPDVFLFPPKPKDTLMISRTPEVTCVVVDVSHEDPEVKFNWYVDGVEVHNAKTKPREEQYNSTYRVVSVLTVLHQDWLNGKEYKCKVSNKALPAPIEKTISKAKGQPREPQVYTLPPSRKELTKNQVSLTCLVKGFYPSDIAVEWESNGQPENNYKTTPPVLDSDGSFFLYSKLTVDKSRWQQGNVFSCSVMHEALHNRYTQKSLSLSP
heavy 2: QVQLVQSGAEVKKPGASVTVSCKASGYTFTDYEMHWIRQPPGEGLEWIGAIDPKTGDTAYSESFQDRVTLTADKSTSTAYMELSSLTSEDTAVYYCTRFYSYTYWGQGTLVTVSSASTKGPSVFPLAPSSKSTSGGTAALGCLVKDYFPEPVTVSWNSGALTSGVHTFPAVLQSSGLYSLSSVVTVPSSSLGTQTYICNVNHKPSNTKVDKKVEPKSCDKTHTCPPCPAPELLGGPDVFLFPPKPKDTLMISRTPEVTCVVVDVSHEDPEVKFNWYVDGVEVHNAKTKPREEQYNSTYRVVSVLTVLHQDWLNGKEYKCKVSNKALPLPEEKTISKAKGQPREPQVYTLPPSRDELTKNQVSLTCLVKGFYPSDIAVEWESNGQPENNYKTTPPVLDSDGSFFLYSKLTVDKSRWQQGNVFSCSVMHEALHNHYTQESLSLSP
light: DIVMTQSPLSLPVTPGEPASISCQASESLVHSNRNTYLHWYLQKPGQSPQLLIYKVSNRFSGVPDRFSGSGSGTDFTLKISRVEAEDVGVYYCSQNTHVPPTFGQGTKVEIERTVAAPSVFIFPPSDEQLKSGTASVVCLLNNFYPREAKVQWKVDNALQSGNSQESVTEQDSKDSTYSLSSTLTLSKADYEKHKVYACEVTHQGLSSPVTKSFNRGEC
notes: S239D in one H chain, S239D/A330L/I332E in the other
fold decrease of binding activity against GpH7-A57/GpH7-B78/GpL16-k0 (FcγRIIIa): 1.8 fold

B3: GpH7-TA7/GpH7-B78/GpL16-k0 (antibody, human IgG1, kappa)
heavy 1: QVQLVQSGAEVKKPGASVTVSCKASGYTFTDYEMHWIRQPPGEGLEWIGAIDPKTGDTAYSESFQDRVTLTADKSTSTAYMELSSLTSEDTAVYYCTRFYSYTYWGQGTLVTVSSASTKGPSVFPLAPSSKSTSGGTAALGCLVKDYFPEPVTVSWNSGALTSGVHTFPAVLQSSGLYSLSSVVTVPSSSLGTQTYICNVNHKPSNTKVDKKVEPKSCDKTHTCPPCPAPEYLWGPSVFLFPPKPKDTLMISRTPEVTCVVVDVSHEDPEVKFNWYVDGVEVHNAKTKPREEQYNATYRVVSVLTVLHQDWLNGKEYKCKVSNKALPAPIEKTISKAKGQPREPQVYTLPPSRKELTKNQVSLTCLVKGFYPSDIAVEWESNGQPENNYKTTPPVLDSDGSFFLYSKLTVDKSRWQQGNVFSCSVMHEALHNRYTQKSLSLSP
heavy 2: QVQLVQSGAEVKKPGASVTVSCKASGYTFTDYEMHWIRQPPGEGLEWIGAIDPKTGDTAYSESFQDRVTLTADKSTSTAYMELSSLTSEDTAVYYCTRFYSYTYWGQGTLVTVSSASTKGPSVFPLAPSSKSTSGGTAALGCLVKDYFPEPVTVSWNSGALTSGVHTFPAVLQSSGLYSLSSVVTVPSSSLGTQTYICNVNHKPSNTKVDKKVEPKSCDKTHTCPPCPAPELLGGPDVFLFPPKPKDTLMISRTPEVTCVVVDVSHEDPEVKFNWYVDGVEVHNAKTKPREEQYNSTYRVVSVLTVLHQDWLNGKEYKCKVSNKALPLPEEKTISKAKGQPREPQVYTLPPSRDELTKNQVSLTCLVKGFYPSDIAVEWESNGQPENNYKTTPPVLDSDGSFFLYSKLTVDKSRWQQGNVFSCSVMHEALHNHYTQESLSLSP
light: DIVMTQSPLSLPVTPGEPASISCQASESLVHSNRNTYLHWYLQKPGQSPQLLIYKVSNRFSGVPDRFSGSGSGTDFTLKISRVEAEDVGVYYCSQNTHVPPTFGQGTKVEIERTVAAPSVFIFPPSDEQLKSGTASVVCLLNNFYPREAKVQWKVDNALQSGNSQESVTEQDSKDSTYSLSSTLTLSKADYEKHKVYACEVTHQGLSSPVTKSFNRGEC
notes: L234Y/G236W/S298A in one H chain, S239D/A330L/I332E in the other
fold enhancement of binding against GpH7-A5/GpH7-B78/GpL16-k0 (FcγRIIIa): ≥ 10 fold
